Source: publication doi:10.1101/2024.11.26.625467

Target: CA09 N1 sNAp (stabilized NA protein, neuraminidase head of H1N1 A/California/07/2009) (influenza A virus H1N1 A/California/07/2009)
Assay: cryo-EM structure

Substance: CA09 N1 sNAp (stabilized NA protein, neuraminidase head of H1N1 A/California/07/2009) (domain or fragment)
- stoichiometry N: 4
